Tested on: MS2 coat protein
Assay: apparent KD of MS2 coat protein; designed switch direction (-1 OFF switch, 1 ON switch): -1; higher = weaker reporter binding
Outline: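 Each step of the titration lasted 0.8–1.5 h at the lowest concentration and 10–20 min at the highest. The protein, SNAP-549-labelled MS2 coat protein, went from 0.7 or 1.5 nM doubling to 3 µM over RNA switches transcribed on Illumina chips by stalled E. coli RNA polymerase. Normalised cluster fluorescence was curve-fitted, and the per-design median over clusters is given as apparent KD.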

[1] = Eterna round: R95, input ligand: microRNA oligo, concentration not stated
[2] = input ligand: microRNA oligo, concentration not stated
[3] = Eterna round: R95, input ligand: FMN 200 uM
[4] = Eterna round: R95, input ligand: none

| Sequence | apparent KD of MS2 coat protein [1] [nM] | apparent KD of MS2 coat protein (input ligand: FMN 200 uM) [nM] | apparent KD of MS2 coat protein (input ligand: none) [nM] | other results |
| --- | --- | --- | --- | --- |
| GUAGAGUAAGGAUAUGCAGAAUAGGAUAGAAUGGAUAGAAUGCAGAAGGUACAUGAGGAUCACCCAUGUAAUGU [Excluse me!!!! 1 - Jieux - Exclusion 4] (puzzle: Exclusion 4) | 19.3 | – | – | – |
| GUCUCACAUGAGGAUCACCCAUGUGAGGAUAUACUGGGCAUUCUGGUGGCAGGUGGGCGUAGAAGGCACGUGGG [Eternabot (L1) Solution 82] (Eterna round: R97, puzzle: Exclusion 1) | – | 33.8 | 19.4 | – |
| AGCUGUGGCCGAGGAUAUGACAUGAGGAUCACCCAUGUACACGAUUAGGCCUGGUAACAGGCUCAUCAGAAGGCGGUCUCAGCA [Eli eng2 - 017] (Eterna round: R96, puzzle: Exclusion NG 2) | – | 9.77 | 13 | apparent KD of MS2 coat protein [2]: 10.4 nM |
| CUGUUACAUGAGGAUCACCCAUGUGAGGAUAUGGUUCGGUACUGUCCUGUCGCGUACUCCAGAAGGCACGUGUU [1st #36] (Eterna round: R97, puzzle: Exclusion 1) | – | 46.5 | 36.5 | – |
| UUAAAUCAUGUAGGAUAUGCGUGGCGAAGCUAUGCAGAAGGACAUGAGGAUCACCCAUGUUCUUGCGUCUGCGUACAGAUGCAA [JL ENG1 1.09] (Eterna round: R96, puzzle: Exclusion NG 1) | – | 118 | 37.2 | apparent KD of MS2 coat protein [2]: 26 nM |
| CUUUUGUGAGGAUAUUAGUAUUAAAUAAAUAAAAUUACUACUGAGAAGGCACAUGAGGAUCACCCAUGUUCCUC [salish99_ex4_r3_050] (puzzle: Exclusion 4) | 33.6 | – | – | – |
| AAUAAUAGCGAGGAUAUCGUAUCGGAAACGAUACGAGAAGGCGUAACAUGAGGAUCACCCAUGUGUCCUCAAAA [Mat - Exclusion 6 - Eli Mod - D7] (Eterna round: R97, puzzle: Exclusion 6) | – | 2520 | 146 | – |
| GCUAGGCAUGUCAGGAUAUGCUGUACCUUGGUACAGCAGAAGGGACAUGAGGAUCACCCAUGUGCCAACCUAGC [JL-BMX4-4.02] (Eterna round: R97, puzzle: Brourd's mod of Exclusion 4) | – | 736 | 55.9 | – |
| AUUUAAUUUAGCGAGAUCACAUGAGGAUCACCCAUGUAUAUAUAGGAUAUCAGCUCGAAUAGAGCUGAGAAGGAUAUAUACCGC [ExNG3/7-A4] (Eterna round: R96, puzzle: Exclusion NG 3) | – | – | – | apparent KD of MS2 coat protein [2]: 76.7 nM |
| UUAAUGUCAGGAUAUGCUUAAUAUAUUAUAUUAUAAUAUAUACAUGAGGAUCACCCAUGUAGAAGGGACAUUAU [LRO-Excl2-03-Fireball XL5] (Eterna round: R97, puzzle: Exclusion 2) | – | 26.8 | 38.2 | – |
| UUAUAUAGUGUGAGGAUAUGCUGGUCCUUGGAUCAGCAGAAGGCACAUGAGGAUCACCCAUGUAAUAUAUUAUU [JL bmx4 3.07] (puzzle: Brourd's mod of Exclusion 4) | 58.2 | – | – | – |
| CGAUUGUGAGGAUAUACUUGUGGUAAUGCACCUGUAUGUAAACAUGAGGAUCACCCAUGUAGAAGGUACGACAG [Eternabot (L2) Solution 11] (Eterna round: R97, puzzle: Exclusion 2) | – | 27.6 | 27.5 | – |
| GCCGCUGUAGGAUAUGCCAGGGUGGCAGCUUGAUGUGUGGCACAUGAGGAUCACCCAUGUAGAAGGACAGAAAG [Isvelera] (puzzle: Exclusion 2) | 17.1 | – | – | – |
| AGUACUAUGCGAGCUGACUUGCGUAGUGCAGCAGGUGGAACAUGAGGAUCACCCAUGUCCUCAUUUGCUCGUCUUAA [Mat - Sensor v3 - Turn-off var 2 - D5] (puzzle: Sensor v3, turn-off variant 2) | 109 | – | – | apparent KD of MS2 coat protein [3]: 27.4 nM; apparent KD of MS2 coat protein [4]: 29.8 nM |
| ACUGGUCGAGGAUAUACAAUCGUGCUUCGGCACGUAAGGUCACAUGAGGAUCACCCAUGUAGAAGGCGACCAGU [E2/2-A3] (Eterna round: R97, puzzle: Exclusion 2) | – | 226 | 29.5 | – |
| ACAUGAGGAUCACCCAUGUGACCACGAUGGCUGAUGUAGAGACAGGAUAUGUGUGAAUAUCUAUCACAGAAGGGUCUUGACUGG [Deportation 54 - Jieux - Exclusion NG 3] (Eterna round: R96, puzzle: Exclusion NG 3) | – | 35.3 | 31.3 | apparent KD of MS2 coat protein [2]: 25.7 nM |
| CGAAGAUGAGGAUAUGCUACAGACAUGUUCGCGCAGAAGUAACAUGAGGAUCACCCAUGUAGAAGGCAUCUUUU [Eternabot (L2) Solution 88] (Eterna round: R97, puzzle: Exclusion 2) | – | 36.5 | 35.9 | – |
| CACCGUUACCGAGGAUAUCGUACAUGAGGAUCACCCAUGUAAUAAAUGAGAAUUUCGGAUGUAUGCGAGAAGGCGGGAAUCGGC [Ostracism 35 - Jieux - Exclusion NG 2] (Eterna round: R96, puzzle: Exclusion NG 2) | – | – | – | apparent KD of MS2 coat protein [2]: 24.8 nM |

| Sequence | apparent KD of MS2 coat protein [1] [nM] | apparent KD of MS2 coat protein (input ligand: FMN 200 uM) [nM] | apparent KD of MS2 coat protein (input ligand: none) [nM] | other results |
| --- | --- | --- | --- | --- |
| CUCGUGUGAGGAUAUCCUCUUAUAUAACAAAGGUUGAAGCAGGAGAAGGCACAUGAGGAUCACCCAUGUGCAUA [EX4 C.6] (Eterna round: R97, puzzle: Exclusion 4) | – | 46.4 | 16.9 | – |
| UUUUUUGUUGUGAGGAUAUCGUAUUUUUUUUGUUACGAGAAGGCACAUGAGGAUCACCCAUGUUUCUUGAUGUU [JR_BMOE4_Sub066] (puzzle: Brourd's mod of Exclusion 4) | 16.8 | – | – | – |
| CGUGCGUAUGUGAGGAUAUGCUGGUCCUUGGAUCGGCAGAAGGCACAUGAGGAUCACCCAUGUGGUGUCGUUCC [salish99_Bmod_ex4_094] (puzzle: Brourd's mod of Exclusion 4) | 39 | – | – | – |
| CCGAAUAAGCAGGAUAUCGAAUCGGAAACGAUUCGAGAAGGGUUAACAUGAGGAUCACCCAUGUUCCUUAACGG [Mat - Exclusion 6 - Eli Mod - D78] (puzzle: Exclusion 6) | 19.2 | – | – | – |
| AGGUCCUUCUGGAGACAUGAGGAUCACCCAUGUCGAGUCAGCGAGGAUAUCGGUUAAUAAUGUGACGAGAAGGCGCGGACCGAU [Ex NG3 #55] (Eterna round: R96, puzzle: Exclusion NG 3) | – | 45.1 | 13 | apparent KD of MS2 coat protein [2]: 9.82 nM |
| AUAAAAGCAGGAUAUGCGCGGUGUGAUGCCGCAUGCUCGUCACAUGAGGAUCACCCAUGUAGAAGGGCUAAAUG [Diramadidi] (Eterna round: R97, puzzle: Exclusion 2) | – | 19.3 | 15.6 | – |
| UUUUUGUUUUUGUUUUUUGACAUGAGGAUCACCCAUGUCACGAGCAGAUCUUCAUGCAAGCUUUUUGCUCGUCUUAU [Sensor v3 - Turn-off variant 1 - 39] (puzzle: Sensor v3, turn-off variant 1) | 46.9 | – | – | apparent KD of MS2 coat protein [3]: 62.8 nM; apparent KD of MS2 coat protein [4]: 83.3 nM |
| GAGGGACAUGAGGAUCACCCAUGUGAGGAUAUGUGAGAAGGAUUGGAGAGUGAGUGGGACAGAAGGCGCAAGGG [JR_Exclu1_Sub085] (puzzle: Exclusion 1) | 59.9 | – | – | apparent KD of MS2 coat protein [3]: 95.4 nM; apparent KD of MS2 coat protein [4]: 78 nM |
| CAUGCUUCAUAGGAUAUGGAAGACGUACCGUCGCUAGAAGGAUGAACAUGAGGAUCACCCAUGUAAUACAGGGC [Eternabot (L2) Solution 64] (Eterna round: R97, puzzle: Exclusion 6) | – | 169 | 68.6 | – |
| CUUUGGUCAGGAUAUGGUGGGCUGGUCGCGCGGCCGGGUGGCCAGAAGGGACAUGAGGAUCACCCAUGUACGGC [excls4-X] (Eterna round: R96, puzzle: Exclusion 4) | – | 106 | 84.3 | apparent KD of MS2 coat protein [2]: 53 nM |
| UUAUUAAGUGUGAGGAUAUGCUGGUCCUUGGAUCAGCAGAAGGCACAUGAGGAUCACCCAUGUACUUUAUUUUA [JL bmx4 3.04] (puzzle: Brourd's mod of Exclusion 4) | 15.5 | – | – | – |
| CAUUAUUAUCGAGGAUAUCGUAUUGAGAUACUAUGAGAAGGCGGGAUAAACAUGAGGAUCACCCAUGUGAGCCGGAUGCUUGUG [Ex NG1 #36] (Eterna round: R96, puzzle: Exclusion NG 1) | – | – | – | apparent KD of MS2 coat protein [2]: 13.5 nM |
| GUCAGGAAUGUAGGAUAUCUGCACGUUUAGUGCAGAGAAGGACAUGAGGAUCACCCAUGUAUAGUAGCUUCGGCUACACCUGAC [ENG1-A2] (Eterna round: R96, puzzle: Exclusion NG 1) | – | 19.3 | 15.9 | apparent KD of MS2 coat protein [2]: 12.5 nM |
| CGUGACUCAGGAUAUCUAUUGUAUCACAUGAGGAUCACCCAUGUCCAGCGAAAGCUGGAGGGAGAAGGGAGUCACG [Fiskers Ex 5 - 46] (puzzle: Exclusion 5) | 204 | – | – | apparent KD of MS2 coat protein [3]: 48.6 nM; apparent KD of MS2 coat protein [4]: 186 nM |
| UAUAAGCUAGGAUAUACUGGCACACAACUCAUAAAUCCACGACAUGAGGAUCACCCAUGUAGAAGGAGCAAAUA [EX2 A.27] (Eterna round: R97, puzzle: Exclusion 2) | – | 18.8 | 14.4 | – |
| GUGUAGAGAGGAUAUACAUGAGGAUCACCCAUGUGAAUAAGAUAGAAUAAGAUAAAGUGUAGAAGGCUUAGUGU [Excluse me!!! 20 - Jieux - Exclusion 3] (puzzle: Exclusion 3) | 31.8 | – | – | – |
| AAUAACAAGCCGAUCCUCGACAUGAGGAUCACCCAUGUGCUCGUCUUGUAAAGUACUAUCACGAAAGUGAUAGUACA (Eterna round: R97, puzzle: Sensor, turn-off variant 1) | – | 174 | 419 | – |

Reference: the supplement of paper PMC9170038
